In patent US9492501B2, “Antiviral agent” (priority 2009, dated 2016):

B1: HPBP: human phosphate binding protein, plasma DING protein of 38 kDa, SEQ ID NO: 2, purified from human plasma (protein, listed as Homo sapiens)
chain: DINGGGATLPQKLYLTPDVLTAGFAPYIGVGSGKGKIAFLENKYNQFGTDTTKNVHWAGSDSKLTATELATYAADKEPGWGKLIQVPSVATSVAIPFRKAGANAVDLSVKELCGVFSGRIADWSGITGAGRSGPIQVVYRAESSGTTELFTRFLNAKCTTQPGTFAVTTVFANSYSLGLSPLAGAVAAIGSVGVMAADNDVTTAQGRITYISPDFAAPTLAGLDDATKVARTGKGSSSGGGAEGKSPAAANVSAAISVVPLPAAADRGDPNVWTPVFGAVTGGGVVAYPDSGYPILGFTDLIFSECYANATQTGQVRNFFTKHYGTSANDNAAIQANAFVPLPSNWKAAVRASYLTASNALSIGDSAVCGGKGRPE
B2: p27^SJ: St. John's wort protein, SEQ ID NO: 4, 71% sequence homology with SEQ ID NO: 1, excluded from the invention (protein, listed as Hypericum perforatum)
chain: MADINGGGATLPQALYQTSGVLTAGFAPYIGVGSGNGKAAFLNNDYTKFQAGVTNKNVHWAGSDSKLSATELSTYASAKQPTWGKLIQVPSVGTAVAIPFNKSGTAAVDLSVSELCGVFSGRITDWSGISGSGRTGAITVVYRSESSGTTELFTRFLNAKCAETGTFNISTTFGTSYTGGLPAGAVSAAGSQGVMTALAGADGGTTYMSPDFAAPTLAGLDDATKVARVGKDVATNTAGVSPAAANVSAAINAVPVPASTEKP
B3: PON-1: human paraoxonase (PON1), co-purified with HPBP from plasma and separated on hydroxyapatite (protein)
chain: AKLIALTLLGMGLALFRNHQSSYQTRLNALREVQPVELPNCNLVKGIETGSEDLEILPNGLAFISSGLKYPGIKSFNPNSPGKILLMDLNEEDPTVLELGITGSKFDVSSFNPHGISTFTDEDNAMYLLVVNHPDAKSTVELFKFQEEEKSLLHLKTIRHKLLPNLNDIVAVGPEHFYGTNDHYFLDPYLQSWEMYLGLAWSYVVYYSPSEVRVVAEGFDFANGINISPDGKYVYIAELLAHKIHVYEKHANWTLTPLKSLDFNTLVDNISVDPETGDLWVGCHPNGMKIFFYDSENPPASEVLRIQNILTEEPKVTQVYAENGTVLQGSTVASVYKGKLLIGTVFHKALYCEL

What was measured:
[1] = system: HIV-1 (proviral genome NL4.3, strain LAI); experiment: HIV-1 replication, ELISA of viral p24 capsid protein in supernatant of infected Jurkat 1G5 cells; format: cell-based; conditions: treatment 24 hours
Excerpt: (§1) Method: a Jurkat CD4+ T lymphocyte cell line (line 1G5) having integrated into its genome a construction comprising a luciferase reporter gene the expression of which is controlled by the HIV-1 promoter (HIV-1 LTR; HIV-LTR Jurkat line) was used. The measurement of luciferase activity from the cell extracts therefore makes it possible to estimate the HIV-1 transcriptional activity.
(§2) The Jurkat HIV-LTR and Jurkat 1G5 lines were transfected by means of the DEAE-dextran technique with the proviral genome NL4.3 (complete HIV-1 genome, strain LAI).
(§3) The HIV-LTR Jurkat and 1G5 Jurkat lines thus infected, are treated 24 hours later with HPBP/PON protein complexes or with purified PON or HPBP proteins at a final concentration of 2 μg/mL of medium (52 nM of protein alone).
(§4) The cells and the cell supernatant are sampled after treatment for 24 hours.
The transcriptional activity is measured by carrying out a luciferase test. The intensity of the HIV-1 replication is measured by means of ELISA assay of the quantity of viral p24 capsid proteins present in the supernatant of the cell cultures of the infected 1G5 lines [Rohr, O., et al. (2000). The Journal of Biological Chemistry 275, 2654-2660]. […]
(§5) The transcriptional activity and inhibition of the replication are measured as described in Example 6.

[2] = biological target: C/EBPβ protein (Homo sapiens, UniProt P17676); experiment: ELISA of in vitro interaction of HPBP and C/EBPβ proteins; format: binding; conditions: C/EBPβ adsorbed on plate, pure HPBP 0.1 nM to 100 mM
Experimental: (§6) The combination of the Human Phosphate Binding Protein (HPBP) with the C/EBPβ protein is carried out using an ELISA technique.
In ELISA flat-bottom 96-well plates having a high binding affinity for proteins, the C/EBPβ protein is adsorbed on the support and incubated overnight at 4° C.
(§7) The proteins not bound to the plate are removed by washing with a Phosphate Buffered Saline (PBS) buffer containing 10 mg/mL of Bovine Serum Albumin (BSA).
The wells are saturated with a Phosphate Buffered Saline (PBS) buffer solution containing 20 mg/mL of Bovine Serum Albumin (BSA) for 1 hour at room temperature in order to remove the background noise.
After washing with a Phosphate Buffered Saline (PBS) solution containing 10 mg/mL of Bovine Serum Albumin (BSA), different solutions of pure HPBP from 0.1 nM to 100 mM are added to the wells for incubation for 1-3 hours at RT.
The plate is once again washed then incubated with mouse monoclonal anti-HPBP antibodies or rabbit polyclonal anti-HPBP antibodies for incubation for 1-3 hours at RT. […]
(§8) Then after a last washing, the plate is incubated with an HRP substrate (3,3′,5,5′-tetramethylbenzidine: TNB in the presence of hydrogen peroxide H2O2). […] The optical density of the product of the reaction is then measured with a spectrophotometer at 450 nm.

[3] = system: Cell Line R3HR-1G5 (1g5); experiment: Cell toxicity by MTT method, cell line R3HR-1G5 (1g5); format: cell-based; conditions: 1g5 cells, culture 24 hours, FIG. 10
Experimental: The cell toxicity of the HPBP protein was measured on cells in culture.
5.10^6 cells/mL of the lymphoid line B 1g5 were seeded on plates and treated, or not treated, with different doses of purified HPBP protein: 0.2 μg/mL, 2 μg/mL, 20 μg/mL, or 90 μg/mL.
The cells are cultured for 24 hours at 37° C.
(§9) After culture for 24 hours, the toxicity of the protein is evaluated by measuring the number of living cells by the MTT method (3-(4,5-dimethylthiazol-2-yl)-2,5-diphenyl tetrazolium bromide) as described in Berridge et al. Biotechnology Annual Review, 2005, 11, 127-152.
Briefly, 10 μL of MTT is added to each culture.
The mixture is added quickly over 1 minute, then the cultures are returned to 37° C. for 4 hours.
The culture supernatant is then aspirated, and the crystals formed by the presence of MTT are dissolved with acetic acid.
The optical density (OD) of each of the cultures is measured at 570 nm using a spectrophotometer.

[4] = system: Microglial cell line; experiment: Cell toxicity by MTT method, microglial cell line; format: cell-based; conditions: for LD50: microglial line, MTT
Experimental: as §9
Similar experiments were carried out on microglial lines. Conditions similar to those used for the 1g5 cells were used, with 5.10^5 cells/mL.
(§10) The PBL cells were treated with 0.24 μg/mL, 0.48 μg/mL, 0.96 μg/mL, 2.4 μg/mL, 4.8 μg/mL, 9.6 μg/mL, or 24 μg/mL of HPBP protein. Untreated cells were tested as a control.
The cell toxicity of St. John's wort protein p27^SJ was measured on cells in culture under the conditions described in Example 15. The p27^SJ was tested at doses of 0 μg/mL (control), 0.01 μg/mL, 0.1 μg/mL, 0.5 μg/mL, 1 μg/mL, 5 μg/mL, 10 μg/mL, 20 μg/mL and 40 μg/mL.

[5] = biological target: T1, GST-Tat protein (Human immunodeficiency virus type 1 group M subtype B, UniProt P04608); experiment: ELISA of in vitro interaction of HPBP and Tat proteins; format: binding, HIV-1; conditions: GST-Tat adsorbed on plate, pure HPBP 0.1 nM to 100 mM
T1 construct: made in house
Experimental: as §6
In flat-bottom 96-well ELISA plates having a high protein-binding affinity the GST-Tat protein is adsorbed on the support and incubated overnight at 4° C.
as §7
The wells are saturated with a Phosphate Buffered Saline (PBS) buffer solution containing 20 mg/mL of Bovine Serum Albumin (BSA) for 1 hour at room temperature in order to eliminate the background noise. […]
as §8
The inventors used the Enzyme Linked Immunosorbent Assay (ELISA) technique, suited to studying the interaction between the HPBP protein and the HIV-1 (TAT) protein (Engvall and Perlmann, 1971)). The HIV-1 TAT protein was expressed in the form of a fusion with GST in order to obtain the soluble protein and in quantity (approximately 2 mg/mL). […]

[6] = system: Peripheral Blood Lymphocyte (PBL) cells; experiment: Cell toxicity by MTT method, peripheral blood lymphocytes; format: cell-based; conditions: FIG. 11
Experimental: as §9
Similar experiments were carried out on primary lymphocytes. Conditions similar to those used for the 1g5 cells were used.
as §10

[7] = system: HIV-1 promoter (HIV-1 LTR); experiment: HIV-1 transcriptional activity, luciferase test in HIV-LTR Jurkat line; format: cell-based; conditions: treatment 24 hours
Excerpt: as §1, §2, §3, §4
The transcriptional activity is measured by carrying out a luciferase test. The intensity of the HIV-1 replication is measured by means of ELISA assay of the quantity of viral p24 capsid proteins present in the supernatant of the cell cultures of the infected 1G5 lines [Rohr, O., et al. (2000). The Journal of Biological Chemistry 275, 2654-2660].
An untreated negative control as well as a positive control treated with AZT at a final concentration of 10 μM were carried out in parallel. Each experiment is carried out in triplicate.
In parallel, the infected lymphocyte lines obtained were treated with 10 μg of potato DING protein.
as §1, with “Measurement” for “The measurement”, “activity. […]” for “activity.”
as §5

T1 sequence (P04608 whole entry): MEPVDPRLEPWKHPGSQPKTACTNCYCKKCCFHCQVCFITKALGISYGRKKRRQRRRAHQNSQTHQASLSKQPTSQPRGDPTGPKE
C/EBPβ protein, sequence (P17676 whole entry, species assumed): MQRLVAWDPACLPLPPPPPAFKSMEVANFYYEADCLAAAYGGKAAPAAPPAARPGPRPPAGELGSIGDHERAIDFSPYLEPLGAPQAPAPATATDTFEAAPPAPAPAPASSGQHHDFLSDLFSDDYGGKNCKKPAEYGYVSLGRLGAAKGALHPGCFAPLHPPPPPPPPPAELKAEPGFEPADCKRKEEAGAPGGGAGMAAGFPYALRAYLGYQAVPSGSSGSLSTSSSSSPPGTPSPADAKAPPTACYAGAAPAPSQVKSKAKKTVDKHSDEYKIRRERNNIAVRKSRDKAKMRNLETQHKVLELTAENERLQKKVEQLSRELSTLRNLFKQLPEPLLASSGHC

| Molecule | inhibition of HIV-1 replication ([1]; 2 μg/mL (52 nM), p24 in supernatant, CD4+ T lymphocytes (Jurkat 1G5)) | interaction of HPBP protein and C/EBPβ protein in vitro [2] | lethal dose 50% (LD50, dose killing half of the cells) [3] | LD50 ([4]; FIG. 12) | interaction of HPBP protein and Tat protein in vitro [5] | LD50 [6] | transcriptional activity repressed ([7]; 2 μg/mL (52 nM), luciferase, FIG. 3) | inhibits the viral replication by a factor (FIG. 5) ([7]; HPBP 2 μg/mL, FIG. 5 (luciferase activity)) | cell toxicity (in words) ([4]; conditions of Example 15, FIG. 12) | cells dead ([4]; dose of 40 μg/mL, FIG. 12) | repressive effect on HIV-1 replication (in words) ([1]; 2 μg/mL, p24, FIG. 4) | inhibiting effect on transcriptional activity (in words) ([7]; 2 μg/mL, luciferase, FIG. 3) |
| --- | --- | --- | --- | --- | --- | --- | --- | --- | --- | --- | --- | --- |
| B1 | 89% | capable of interacting in vitro | approximately 20 μg/mL | approximately 2.5 μg/mL | capable of interacting in vitro | approximately 5 μg/mL | 80% | > 6 | – | – | – | – |
| B2 | – | – | – | greater than 2.5 μg/mL | – | – | – | – | toxicity very clearly less than that of the HPBP protein | approximately 4% | – | – |
| B3 | – | – | – | – | – | – | – | – | – | – | no repressive effect | does not have such an inhibiting effect |
